Experimental data: US20140134737, “Alternative Splicing Modulators and Splice Variants and Their Use in the Control and Detection of Pluripotency and Differentiation” (Governing Council of the University of Toronto, published 2014)

T1: FOXP1-ES forkhead domain (exon 18b) (Homo sapiens)
T1 chain: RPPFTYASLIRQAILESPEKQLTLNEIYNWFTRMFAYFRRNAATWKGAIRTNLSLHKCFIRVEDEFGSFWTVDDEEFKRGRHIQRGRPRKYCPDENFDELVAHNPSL

T2: FOXP1 forkhead domain (canonical, exon 18) (Homo sapiens, UniProt Q9H334 SEQ:465-555)
T2 sequence: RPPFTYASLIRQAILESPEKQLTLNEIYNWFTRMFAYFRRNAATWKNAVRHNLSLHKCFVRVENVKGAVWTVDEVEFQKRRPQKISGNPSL

B1: AATGGACA x2 mutant (dsDNA)
DNA 1: AATGGACACCAATGGACA
DNA 2: TGTCCATTGGTGTCCATT
B2: GGACACAA x2 mutant (dsDNA)
DNA 1: GGACACAACCGGACACAA
DNA 2: TTGTGTCCGGTTGTGTCC
B3: CGCGACAT x2 mutant (dsDNA)
DNA 1: CGCGACATCCCGCGACAT
DNA 2: ATGTCGCGGGATGTCGCG
B4: AATAAACA x2 probe (dsDNA)
DNA 1: AATAAACACCAATAAACA
DNA 2: TGTTTATTGGTGTTTATT
B5: AACCCCAA x2 mutant (dsDNA)
DNA 1: AACCCCAACCAACCCCAA
DNA 2: TTGGGGTTGGTTGGGGTT
B6: ATGCAGGA x2 mutant (dsDNA)
DNA 1: ATGCAGGACCATGCAGGA
DNA 2: TCCTGCATGGTCCTGCAT
B7: CCACTCAA x2 mutant (dsDNA)
DNA 1: CCACTCAACCCCACTCAA
DNA 2: TTGAGTGGGGTTGAGTGG
B8: CTATCCAA x2 mutant (dsDNA)
DNA 1: CTATCCAACCCTATCCAA
DNA 2: TTGGATAGGGTTGGATAG

Target: T1, FOXP1-ES forkhead domain (exon 18b)
Assay: EMSA; no appreciable shift
Settings: tags: GST fusion; label: radiolabeled
Protocol: (§1) FIG. 2(C) is an Electrophoresis Mobility Shift Assay (EMSA) validating PBM-derived consensus DNA binding sites for FOXP1 and FOXP1-ES. Radiolabeled dsDNA probes containing two copies of GTAAACAA (top left panel), AATAAACA (top middle panel) or CGATACAA (top right panel), or two copies of mutant versions of these sequences GGACACAA (bottom left panel), AATGGACA (bottom middle panel) or CGCGACAT (bottom right panel) were incubated in the absence (lanes 1, 9 and 19) or in the presence of increasing amounts (0.2 to 3.2 pmol) of recombinant GST-FOXP1 or GST-FOXP1-ES proteins. Positions mutated in the probe sequences are underlined. Shifted protein-dsDNA complexes are indicated by arrows and free dsDNA probe is indicated by an asterisk.

Binder | binding result
B1 | no binding
B2 | no binding
B3 | no binding

target: T2, FOXP1 forkhead domain (canonical, exon …); assay: EMSA; no appreciable shift; settings: tags: GST fusion; label: radiolabeled
Protocol: as §1

Binder | binding result
B1 | no binding
B2 | no binding
B3 | no binding

Target: T1, FOXP1-ES forkhead domain (exon 18b)
Assay: EMSA; preferentially bound by FOXP1-ES
Settings: tags: GST fusion; label: radiolabeled
Protocol: as §1

Binder | binding result
B4 | binds

Target: T1, FOXP1-ES forkhead domain (exon 18b)
Assay: EMSA; no appreciable shift
Settings: tags: GST fusion; label: radiolabeled
Remark: another data set of the same source
Protocol: (§2) Radiolabeled dsDNA probes containing two copies of each 8-mer (top panels), or two copies of mutant versions of these sequences CCACTCAA, ATGCAGGA, CTATCCAA and AACCCCAA (bottom panels) were incubated in the absence (lanes 1, 10, 19 and 28) or in the presence of increasing amounts (0.2 to 3.2 pmol) of recombinant GST-FOXP1 or GST-FOXP1-ES proteins. Positions mutated in the probe sequences are underlined. Shifted protein-dsDNA complexes are indicated by arrows and free dsDNA probe is indicated by an asterisk.

Binder | binding result
B5 | no binding
B6 | no binding
B7 | no binding
B8 | no binding

target: T2, FOXP1 forkhead domain (canonical, exon …); assay: EMSA; no appreciable shift; settings: tags: GST fusion; label: radiolabeled; remark: another data set of the same source
Protocol: as §2

Binder | binding result
B5 | no binding
B6 | no binding
B7 | no binding
B8 | no binding
